B1: EEHEE_rd3_1049 (parent)
chain: TTVKLGDIKVTFDNPEKAKKYAQKLAKIYQLTVHVHGDTIHVK
B2: 1ZHC (parent)
chain: HEFRDEISVLKANNPHFDKIFEKHNQLDDDIKTAEQQNASDAEVSHMKKQKLKLKDEIHSMIIEYREK

Variants of: B1
Experiment: folding stability dG (cDNA display proteolysis); higher = more stable
Conditions: PBS, room temperature

Folding stability dG [kcal/mol]: each site, then its substitutions
V42: T 0.607; W 0.918; Y 0.874
K43: A 2.07; C 3.65; D 1.61; E 1.91; F 2.85; G 2.51; H 2.19; I 2.62; L 2.57; M 2.56; N 1.58; P 0.706; Q 2.16; R 2.36; S 2.17; T 2.48; V 2.68; W 2.48; Y 2.64

Variants of: B2
Experiment: as above
Conditions: PBS, room temperature

Folding stability dG [kcal/mol] of substitutions, site by site:
H1: A 0.874; D 1.28; E 1.23; F 1.05; G 0.836; I 0.939; K 0.855; L 1.12; M 1.11; N 0.835; P 0.497; Q 0.787; R 0.829; S 1.03; T 0.856; V 0.768; W 1.34; Y 0.73
E2: A 1.29; D 0.711; F 0.966; G 0.827; H 0.917; I 0.998; K 0.746; L 1.08; M 0.855; N 0.525; P 0.82; Q 1.07; R 1.19; S 0.328; T 0.802; V 1.2; W 1.66; Y 1
F3: A 0.526; D 0.364; E 0.242; G 0.249; H 0.635; I 0.418; K 0.26; L 1.04; M 0.267; N 0.409; P 0.015; Q 0.544; R -0.674; S 0.019; T 0.328; V 0.222; W 1.15; Y 1.05
R4: A 1.26; D 1.04; E 1.08; F 1.5; G 0.834; H 0.919; I 1.02; K 0.923; L 1.17; M 1.13; N 0.384; P 0.834; Q 1.08; S 1.05; T 0.952; V 0.547; W 1.49; Y 1.25
D5: A 0.255; E 0.721; F 1.36; G 0.455; H 1.23; I 1.04; K 0.902; L 0.917; M 0.985; N 0.625; P -0.163; Q 0.415; R 0.858; S 0.508; T 0.722; V 0.719; W 1.47; Y 1.53
E6: A 1.3; C 1.95; D 0.718; F 1.4; G -0.608; H 0.158; I 2.1; K -0.498; L 1.76; M 1.46; N 0.08; P 0.04; Q -0.376; R 0.234; S 0.271; T 1.14; V 1.5; W 1.55; Y 1.42
I7: A -0.185; C 1.14; E -0.7; F 0.109; H -0.334; K -0.95; L 0.235; M -0.64; N -0.499; R -0.653; T -0.043; V 0.475; W 0.295; Y 0.804
S8: A 1.56; C 1.67; D 0.953; E 1.32; F 1; G 0.671; H 0.57; I 0.988; K 1.21; L 1.21; M 1.4; N 0.922; P -0.067; Q 1.11; R 1.26; T 1.08; V 0.784; W 1; Y 0.782
V9: A 1.16; C 1.91; D 0.497; E 0.933; F 2.05; G 0.417; H 1.49; I 1.06; K 1.37; L 1.23; M 1.07; N 0.901; Q 1.05; R 1.01; S 0.824; T 0.509; W 2.46
L10: A -0.294; C 0.629; G -0.111; I 0.415; M -0.173; S -0.995; V -0.406; W -0.69; Y -0.44
K11: A 0.308; C 1.05; D -0.966; F 0.176; G -0.572; I 0.839; L 1.07; M 0.616; P -0.825; Q 0.591; R 1.96; S 0.169; T -0.058; V 0.083; W -0.052; Y -0.334
A12: C 1.42; D 0.188; E 0.524; F 0.361; G 0.257; H 0.398; I 0.482; K 1.07; L 0.297; M 0.648; N 0.287; P -0.496; Q 0.395; R 0.983; S 0.404; T 0.659; V 0.253; W -0.494; Y 0.632
N13: A 0.764; D 0.311; E 0.701; F 0.565; G 0.346; H 0.775; I 1.31; K 0.586; L 1.44; M 1.33; Q 1.22; R 1; S 0.889; T 1.39; V 0.458; W 1.06; Y 0.635
N14: A -0.402; D 0.835; E -0.24; F 0.397; H -0.133; I -0.077; L -0.009; M -0.831; Q -0.421; S 0.54; V -0.058; W 1; Y 0.963
P15: A 0.443; C 0.845; D 0.108; E 0.365; F -0.013; G 0.048; H 0.38; I 0.31; K 0.313; L 0.336; M 0.07; N 0.045; Q 0.122; R 0.029; S 0.822; T 0.292; V 0.356; W 0.335; Y -0.634
H16: A 0.24; C 0.932; D -0.361; E 0.338; F 0.373; G -0.149; I 0.609; K 0.147; L 0.427; M -0.101; N -0.56; Q 0.27; R 0.534; S -0.066; T 0.264; V 0.505; W 1.1; Y 1.53
F17: C -0.409; E -0.562; G -0.943; P -0.525; R -0.98
D18: A 2.29; C 1.97; E 1.35; F 2.03; G 1.16; H 1.62; I 1.43; K 2.23; L 2.42; M 2.03; N 1.74; Q 1.95; R 2.46; S 1.56; T 1.35; V 1.68; W 1.77; Y 1.95
K19: A 1.13; C 1.32; D 0.823; E 1.1; F 1.37; G 0.004; H 0.901; I 0.622; L 0.515; M 0.78; N 0.558; Q 0.953; R 1.15; S 0.513; T 0.755; V 0.316; W 1.3; Y 1.52
I20: A -0.159

Reference: the MegaScale stability set (Tsuboyama et al. 2023)
